Experimental data published in paper PMC8732845, “Novel interaction between neurotrophic factor-α1/carboxypeptidase E and serotonin receptor, 5-HTR1E, protects human neurons against oxidative/neuroexcitotoxic stress via β-arrestin/ERK signaling” (Cellular and Molecular Life Sciences: CMLS, 2021).

Target: 5-hydroxytryptamine receptor 1-E (5-HTR1E) on stably transfected HEK293 cells (human, UniProt P28566 1-365)
Test: cell-based or functional assay

Sequence of 5-hydroxytryptamine receptor 1-E (5-HTR1E) on stably transfected HEK293 cells (P28566 whole entry): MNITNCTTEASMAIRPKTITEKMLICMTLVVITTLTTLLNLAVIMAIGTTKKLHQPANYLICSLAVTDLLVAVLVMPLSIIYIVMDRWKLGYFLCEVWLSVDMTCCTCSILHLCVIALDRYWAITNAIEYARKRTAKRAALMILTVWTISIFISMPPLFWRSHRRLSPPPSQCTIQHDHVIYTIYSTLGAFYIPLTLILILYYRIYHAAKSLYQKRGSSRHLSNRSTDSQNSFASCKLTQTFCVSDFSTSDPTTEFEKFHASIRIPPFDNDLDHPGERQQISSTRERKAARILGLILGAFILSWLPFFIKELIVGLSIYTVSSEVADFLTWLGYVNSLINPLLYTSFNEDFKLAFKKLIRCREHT

- CREB phosphorylation (Western blot, pCREB/tCREB) in 5-HTR1E stable cells, 50 nM NF-α1/CPE, 10–60 min (value after 20 min); not in control HEK293 cells: 1.3 fold
- phosphorylation of ERK 1/2 (Western blot, pERK/tERK) in 5-HTR1E stable HEK293 cells, 0–50 nM NF-α1/CPE for 5–15 min; not in control HEK293 cells: 3.4 fold
B1: Recombinant mouse NF-α1/CPE (neurotrophic factor-α1/carboxypeptidase E), unlabeled (ligand)
chain: not shown
